Data on 167 variants can be found in the RNAGym collection of RNA variant scans (doi:10.7554/elife.80360).

B1: HDV Ribozyme (parent)
chain: GGCCGGCAUGGUCCCAGCCUCCUCGCUGGCGCCGGCUGGGCAACAUUCCGAGGGGACCGUCCCCUCGGUAAUGGCGAAUGGGACCCA

Variants of B1 are the subject of this data set. Description: self-cleavage, relative activity (ratio to wild type); higher = more cleavage; co-transcriptional.
Regarding G1A C75A, the self-cleavage was 0.161.

With G5A U47A, the self-cleavage was 0.208.

C26A U37A: the self-cleavage was found to be 0.166.

With C19G C30G, the self-cleavage came out at 0.0739.

For C57U G76A, the self-cleavage worked out at 1.1.

As for G5U G53C, the self-cleavage was found to be 0.489.

As for A16C A87G, the self-cleavage stood at 0.769.

Take C33U G76U: the self-cleavage was 1.02.

For U23A A78C, the self-cleavage worked out at 0.219.

For the variant A8U C33U, the self-cleavage was found to be 0.453.

On to C18U U20C, for which the self-cleavage worked out at 0.0923.

Turning to G50C U60G, the self-cleavage is 1.03.

G5A A83C: the self-cleavage worked out at 0.175.

With C3U A71G, the self-cleavage was 0.89.

Consider G1U G6C, for which the self-cleavage worked out at 0.656.

Regarding C58A C85U, the self-cleavage was 0.869.

In the case of C14G C63A, the self-cleavage amounted to 0.755.

Turning to A16U U20C, the self-cleavage came out at 0.277.

In the case of A43G C49A, the self-cleavage was 0.554.

In the case of G6U G67C, the self-cleavage is 0.73.

For A78C C86G, the self-cleavage is 0.14.

On to A78C C86A, for which the self-cleavage came to 0.192.

Regarding C66G G73C, the self-cleavage was found to be 0.46.

Consider C49A G68U, for which the self-cleavage came to 0.817.

Regarding C15A A56U, the self-cleavage worked out at 0.743.

For the variant C4A U46C, the self-cleavage stood at 0.111.

C57A C64U: the self-cleavage came out at 1.

As to G59C U60A, the self-cleavage is 1.09.

As to C18A G59C, the self-cleavage was 0.0639.

For the variant U9G, the self-cleavage was 1.02.

G6C G80U: the self-cleavage was 0.0692.

As for C30U U69G, the self-cleavage worked out at 0.554.

Take C33A C58A: the self-cleavage was 0.19.

C15A C44G: the self-cleavage was found to be 0.431.

With C24G C44G, the self-cleavage was found to be 0.125.

Take G5C A16U: the self-cleavage was found to be 0.237.

Turning to U69C A77G, the self-cleavage worked out at 0.997.

For the variant A16G C33U, the self-cleavage amounted to 0.802.

On to C3G C26U, for which the self-cleavage is 1.2.

In the case of C32G C57U, the self-cleavage was determined as 0.0702.

C30U G40U: the self-cleavage was 0.114.

Regarding G50A A83C, the self-cleavage was determined as 0.525.

Take G6U G35C: the self-cleavage was found to be 0.0437.

G38A C66A: the self-cleavage was 0.0992.

As to C48G U69G, the self-cleavage was found to be 0.712.

For the variant C22G G80C, the self-cleavage turned out to be 0.136.

On to U69C G80C, for which the self-cleavage turned out to be 0.0396.

Turning to C62G G76A, the self-cleavage was 1.02.

In the case of G11U C41U, the self-cleavage was found to be 0.358.

As to C61A G76U, the self-cleavage turned out to be 1.05.

C21A A42G: the self-cleavage stood at 0.158.

As to U37C A51G, the self-cleavage amounted to 0.966.

For U12C A77G, the self-cleavage was 0.302.

As to A42G A71G, the self-cleavage is 0.554.

With G53A G74A, the self-cleavage was 0.554.

For the variant C18U G53A, the self-cleavage came to 0.639.

Consider C3A G52A, for which the self-cleavage was 0.699.

For G76A A87C, the self-cleavage stood at 1.03.

Consider G53C A78C, for which the self-cleavage was found to be 0.0678.

In the case of U47C C86U, the self-cleavage turned out to be 0.712.

Take C33G A42G: the self-cleavage turned out to be 0.0665.

Regarding G25U G31U, the self-cleavage was determined as 0.0875.

In the case of G34U G59A, the self-cleavage came to 0.203.

With U9G C86U, the self-cleavage was found to be 1.42.

On to U27C A56C, for which the self-cleavage came to 0.612.

In the case of C41A A70G, the self-cleavage was determined as 0.916.

G53U A70C: the self-cleavage is 0.774.

For the variant U72C G76U, the self-cleavage was determined as 1.01.

As to C15G G52A, the self-cleavage was found to be 0.807.

On to G68U G74C, for which the self-cleavage amounted to 0.222.

For C21U G81U, the self-cleavage came out at 0.0875.

For the variant G11A C75G, the self-cleavage stood at 0.141.

Turning to A8U C84G, the self-cleavage worked out at 0.462.

In the case of G28U G52C, the self-cleavage was found to be 0.154.

With G25A G34C, the self-cleavage was determined as 0.229.

Take C13U G76C: the self-cleavage turned out to be 0.772.

As for U23G C75G, the self-cleavage is 0.111.

Consider G2C U20G, for which the self-cleavage stood at 0.

Turning to G1A G38U, the self-cleavage was 0.0845.

As for G10A G74C, the self-cleavage is 0.105.

As for C15A U23A, the self-cleavage was 0.604.

Consider G31A U60A, for which the self-cleavage was found to be 0.49.

As for C18A G55C, the self-cleavage is 0.133.

In the case of C7G C36G, the self-cleavage was determined as 0.0723.

For the variant G31U A56U, the self-cleavage was 0.489.

Consider A8C C26U, for which the self-cleavage was 1.01.

For the variant G11C G67U, the self-cleavage is 0.323.

For the variant C62A G76C, the self-cleavage was determined as 1.02.

As to C22A C36U, the self-cleavage is 0.149.

Consider C22A C36A, for which the self-cleavage is 0.0536.

Turning to G1U A8C, the self-cleavage was determined as 0.415.

For G2U G39C, the self-cleavage was 0.0125.

Turning to G38C G53C, the self-cleavage came to 0.295.

On to G6U G74A, for which the self-cleavage was determined as 0.16.

For G1A G5A, the self-cleavage was determined as 0.0755.

As to C18G G82U, the self-cleavage is 0.219.

For the variant A16C C61U, the self-cleavage was found to be 0.798.

Consider G1U G81A, for which the self-cleavage stood at 0.25.

As to C18U G29A, the self-cleavage stood at 1.06.

As for C7G G38A, the self-cleavage was 0.101.

Consider C33G U69G, for which the self-cleavage amounted to 0.123.

As for U47C A56G, the self-cleavage worked out at 0.665.

On to C49U G76C, for which the self-cleavage was 0.867.

Regarding U37G C61G, the self-cleavage worked out at 0.

G76U A87G: the self-cleavage worked out at 1.13.

Regarding A16U C58G, the self-cleavage was determined as 0.807.

For C30A A83U, the self-cleavage was 0.0923.

As to U9A A83C, the self-cleavage turned out to be 0.731.

For C41G G50C, the self-cleavage amounted to 0.554.

G11A C32G: the self-cleavage was found to be 0.0683.

As for C61G C64U, the self-cleavage was 0.755.

Turning to C24G G54A, the self-cleavage worked out at 0.

Consider C24G G54U, for which the self-cleavage is 0.183.

Consider U12C C30A, for which the self-cleavage turned out to be 0.193.

On to G59U G68A, for which the self-cleavage was 0.88.

As to C19G C84U, the self-cleavage was 0.0504.

As to C14A C48A, the self-cleavage worked out at 0.485.

Turning to G5C U46C, the self-cleavage was found to be 0.26.

Regarding C13A C86U, the self-cleavage is 0.242.

For the variant C24U C33A, the self-cleavage is 0.0845.

On to C58U G67C, for which the self-cleavage amounted to 1.07.

As to C13U U65C, the self-cleavage amounted to 0.604.

On to C3G C44U, for which the self-cleavage came out at 0.156.

Consider C57A C62U, for which the self-cleavage worked out at 1.06.

U47G G73U: the self-cleavage turned out to be 0.458.

In the case of A8G C62G, the self-cleavage amounted to 0.489.

In the case of C15U A16C, the self-cleavage came to 1.33.

For the variant U72G G76U, the self-cleavage was found to be 0.646.

With C14G A87G, the self-cleavage turned out to be 0.683.

With C32G C49U, the self-cleavage worked out at 0.0811.

Turning to G52A A87G, the self-cleavage came to 0.86.

With G25U C44A, the self-cleavage worked out at 0.0852.

On to A8G C64G, for which the self-cleavage was determined as 0.7.

Turning to U37C G55A, the self-cleavage was 1.

For the variant G38A G67A, the self-cleavage is 0.0665.

On to U65A G80A, for which the self-cleavage is 0.201.

As for U12G C24G, the self-cleavage stood at 0.136.

On to G40U G53A, for which the self-cleavage was determined as 0.715.

Regarding C44U C62G, the self-cleavage worked out at 0.464.

For U12C U20A, the self-cleavage was found to be 0.0723.

In the case of U9C G10A, the self-cleavage stood at 0.985.

In the case of C44A C64U, the self-cleavage is 0.665.

Take C19G U46A: the self-cleavage was 0.

Regarding C15A G82A, the self-cleavage was determined as 0.369.

On to C49G G82U, for which the self-cleavage came out at 0.123.

U27G A70C: the self-cleavage was 0.554.

Consider C7G C33U, for which the self-cleavage worked out at 0.

For C49A A51G, the self-cleavage worked out at 0.748.

For C3A C13U, the self-cleavage is 0.213.

Take G25U U69C: the self-cleavage is 0.229.

On to G25U U69A, for which the self-cleavage is 0.196.

U23A G31A: the self-cleavage came to 0.489.

Turning to G28C C44U, the self-cleavage was determined as 0.

With C32A C41U, the self-cleavage was determined as 0.143.

Take U65G G76A: the self-cleavage was 0.95.

With C7U A42G, the self-cleavage was 0.415.

Regarding C32A G50C, the self-cleavage came to 0.262.

In the case of A77U, the self-cleavage is 0.623.

As for G2A U23C, the self-cleavage turned out to be 0.0511.

As for G74U C84G, the self-cleavage amounted to 0.126.

For the variant C44U G53A, the self-cleavage is 0.709.

C48G: the self-cleavage turned out to be 0.988.

As for U20G A71U, the self-cleavage stood at 0.151.

In the case of G68A U79A, the self-cleavage was 0.554.

Turning to G5A G50A, the self-cleavage was 0.192.

As for G54C C62G, the self-cleavage is 0.855.

With U37C G76U, the self-cleavage was 1.3.
